We go through three molecules from PMC11819540, “A new method for the reproducible development of aptamers (Neomers)”.

The data set concerns the target Interleukin 6 (IL-6) (Homo sapiens, UniProt P05231 30-212). In words: SPRi; SPRi running buffer: 400 mM 6-aminohexanoic acid, 2 mM TETA, 100 mM NaCl, pH 5.7 ± 0.1, 25 °C; aptamers immobilized on gold, protein in flow at 50 µL/min. The conditions noted are these: protein: commercial.

Sequence of Interleukin 6 (IL-6) (P05231 30-212): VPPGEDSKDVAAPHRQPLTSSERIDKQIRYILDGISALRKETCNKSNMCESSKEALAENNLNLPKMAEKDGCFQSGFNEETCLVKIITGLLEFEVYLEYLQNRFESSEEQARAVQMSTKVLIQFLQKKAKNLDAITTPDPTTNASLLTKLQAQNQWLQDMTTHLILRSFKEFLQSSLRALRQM

B1: IL-6-6449 (ssDNA)
DNA: TGTGTATAAGTCGCGAGGTTTGAATGCGAACCATCGGCGCCAACAAAACATTCAAACAGAAATCTACTAGTCAC
modifications: thiol
Turning to B1, the Kd (commonly the concentration at which binding is half-saturated) turned out to be 32.1 nM. Under CAAGAGGGTTGAATTGCAACCATCGGC (ssDNA, thiol) [IL-6-7326.1] stands 27 nM. Under GTCCTGAGGTGTGAATACAAACCATCGG (ssDNA, thiol) [IL-6-4202.1] stands 73.2 nM.
